# ± gives the uncertainty stated by the source.
# Assay: amyloid nucleation score (Sup35N fusion, yeast selection) (log enrichment); library NNK2; higher = more nucleation; inactive = no reads after selection
# Outline: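 DiMSum was used to calculate nucleation scores as log enrichment of output over input reads, centred on the mode score of non-aggregating sequences. Sequences with fewer than 100 input reads were not scored. Input and output came from Illumina sequencing of plasmid inserts in psi-negative yeast expressing peptides of 20 random codons fused to Sup35N, induced 24 hours with 100 μM copper sulfate and then grown 7 days at 30°C on medium lacking adenine and uracil.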
row,Substance,amyloid nucleation score
1,FAGNAHGRRTG,1.3 ± 0.31
2,FAKFQGSKISPVSHTSLLST,inactive
3,FALHGEDWSNSTISRNFWSR,-0.031 ± 0.35
4,FALNPAESLHIRYIGLALF,-1.02 ± 0.62
5,FAMDSIKRFFKIIIFSRYT,-1.34 ± 1.1
6,FAMNSVSFSAGNFTDSVPWW,-0.666 ± 0.63
7,FARKMIGLPLLYLLGVMFGR,-0.877 ± 0.78
8,FASLCTW,-0.211 ± 0.46
9,FAVFPLVPGRGPGLFENNRW,-0.104 ± 0.74
10,FAWNMLS,0.285 ± 0.74
11,FAYLPSTVVGVSHSTLGPLI,0.221 ± 0.43
12,FCAQITPHRISWLWWQINRQ,-0.304 ± 1.1
13,FCCFRVYVDMENLSNSALTL,7.557 ± 0.033
14,FCLFW,inactive
15,FCLGRMLARPRRTCYTDENM,-0.126 ± 0.49
16,FCLVY,0.744 ± 0.19
17,FCMFSNIYVFPSTIF,7.583 ± 0.02
18,FCNLN,-0.02 ± 0.28
19,FCRSVILSVQMLFKYAIYRF,-1.37 ± 1.1
20,FCRWSVTFNFRSMIGPGS,5.344 ± 0.035
21,FCSTTAICYKGEKQ,3.47 ± 0.14
22,FCTHPSFGTVMGMRAETGLD,0.516 ± 0.81
23,FCVAGQLLVS,0.228 ± 0.25
24,FCWRNCLNVIDTF,-1.22 ± 0.35
25,FDKRS,inactive
26,FDNRNVSVSYPYNKMGNRVM,2.57 ± 0.069

row,Substance,amyloid nucleation score
1,FDQTFEDWWPAYNHSRFNQH,0.352 ± 0.51
2,FDYFF,inactive
3,FDYKSKKGRNNDWRTVCCVM,2.21 ± 0.16
4,FDYVLSGICIPLKSIGVSFG,8.385 ± 0.053
5,FDYVMFSDIVWSYTKNDALM,-0.111 ± 0.63
6,FEAINMSQQCIYCFPMSRNI,7.388 ± 0.053
7,FEFMNDFQSYVRMFRCLVFL,-0.401 ± 0.43
8,FEFTTCQGDRRSCFDGWGGN,2.19 ± 0.15
9,FENYYGSHGDFGVYDKFNHL,inactive
10,FFDYLANFCLSKHGNNNYPF,-0.97 ± 1.1
11,FFEMFGCHMFLLMAYLTI,0.164 ± 0.63
12,FFFRSHKTIILVAKG,-0.104 ± 0.2
13,FFFVLFGFWYKTRWSMCISK,2.31 ± 0.22
14,FFIYGNSHVSVIRYWTCTLT,7.391 ± 0.049
15,FFLLPLVRYELLSNVDAVPG,0.101 ± 0.76
16,FFNAR,-0.951 ± 0.62
17,FFRLIGDGGYCCFPCKSDVR,2.54 ± 0.077
18,FFSFGCGSWRTVIVTSRSL,-0.299 ± 1
19,FFSNIFIEASVCELGSNANV,1.03 ± 0.23
20,FFTAMDASRSRLKCSYAVQT,3.28 ± 0.13
21,FFWSLGSYILHYC,inactive
22,FFYHLCASVRLA,-1.11 ± 0.78
23,FFYRVPDITSDAGITQLLAQ,5.483 ± 0.048
24,FGCSVNRKILVLMFVNVISV,-0.627 ± 0.39
25,FGFWDLMSCTSRMGTIIRLY,inactive
26,FGGINIGCGQCLFVVR,8.503 ± 0.053

row,Substance,amyloid nucleation score
1,FGIGFGFLVHYDGRFWVYFG,inactive
2,FGLSRL,0.713 ± 0.74
3,FGMFGSSYYIMY,2.63 ± 0.093
4,FGMNDRRH,-0.381 ± 0.79
5,FGNDPSGCVNQAYYHRCFLD,-0.959 ± 0.78
6,FGVNDLYSDLW,-0.68 ± 0.25
7,FHARPDSNPEENMVDSGI,inactive
8,FHLEPLKWSWVST,-0.837 ± 1.1
9,FHLMFCGSL,-0.818 ± 0.49
10,FIAYMYPMVIWIPMRFLINQ,inactive
11,FICCNNSQIRVSFWLRTWYL,3.39 ± 0.048
12,FIDTLNYDWDIVLFWFLGEN,0.021 ± 0.51
13,FIICPSSDCNIRDIRRILTC,-0.967 ± 0.28
14,FIICTEWPSDLLNWSSVANW,-0.658 ± 1
15,FIIMFIRLLSW,1.12 ± 0.14
16,FILSQWYKGSECTTCRRLWG,-0.318 ± 0.4
17,FIMMDRAGSMIYSKGTRNIR,3.05 ± 0.11
18,FINILKSSMLSVDWSLPIFN,inactive
19,FINSHFHYEECPIMGKQSVL,1.63 ± 0.53
20,FINVLDSNLAQLWLLFTSWR,1.51 ± 0.14
21,FIRYS,1.79 ± 0.084
22,FIRYVCHNVWDICYHLEMLL,inactive
23,FISMGQGRPEFLWVFVDVGD,0.092 ± 1.1
24,FITQVHSYWDSISTVTSDIL,inactive
25,FIVRSLRSSHTKTVPLPACC,inactive
26,FKASWVVRASNKDTHIHRGG,-0.144 ± 0.49

row,Substance,amyloid nucleation score
1,FKDRYRTGFSDVRNQVAHSV,inactive
2,FKDSDVEEWLNVKIIYWGVC,-0.604 ± 0.41
3,FKDTWQSPGAVERKGMRTSV,0.365 ± 0.22
4,FKDWNKWY,inactive
5,FKHVLDRN,-0.343 ± 0.45
6,FKIVALTTVNIVLRDSWCNP,6.199 ± 0.061
7,FKLFSFQVLYCSFDPCMHYT,-1.33 ± 0.62
8,FKQLIMGYS,3.24 ± 0.075
9,FKSTYVHHYRVMPGSVVLLR,-1.2 ± 1.1
10,FLEQFVMSLT,-0.752 ± 0.44
11,FLFEN,-0.607 ± 0.64
12,FLFETMVIFSSSEMVWRDWC,0.192 ± 1
13,FLFGLSIMLLNKEPGRCFRG,5.23 ± 0.097
14,FLGEAHFI,0.078 ± 0.4
15,FLGLTDWRVDYCSEWQGFAQ,-0.199 ± 1.1
16,FLIFDRSKCCCVDTRGSGGT,inactive
17,FLIVPKILNICL,7.746 ± 0.077
18,FLKYSDKQHAVNVGLKVTAQ,0.094 ± 0.74
19,FLLDCN,2.56 ± 0.15
20,FLLECSWFCVYTIGFYYRNI,inactive
21,FLLHVCVADKVGVTSIHTCC,-0.181 ± 0.35
22,FLLSVGSHCMPVHEYGMTNA,0.445 ± 0.56
23,FLMGVPEIFFPLVVSDYMYV,inactive
24,FLRNWGTAWLVGFNSAKFIC,-0.955 ± 0.63
25,FLSRIYESLSTVI,inactive
26,FLSSGFCRTDFVRSIILYGP,-1.43 ± 0.55

row,Substance,amyloid nucleation score
1,FMEYCSVLLFCLVMARLSGS,-0.012 ± 1.1
2,FMITWGINRS,4.02 ± 0.043
3,FMLAHVYVNV,-1.01 ± 0.78
4,FMRMALAGPDKF,-0.738 ± 1.1
5,FMSFVYLHVPSANTCI,3.83 ± 0.045
6,FMSGRESAVCLFKNFSVLRS,2.76 ± 0.084
7,FMSMLSCQAKTNLPMYATHM,-0.091 ± 0.79
8,FMTSWTVYSSRAYLHENVGT,1.08 ± 0.37
9,FMVILSGYIVL,0.429 ± 0.66
10,FMVWWFTIRVPEDCYQP,-0.5 ± 0.39
11,FMYHSYSGRPNNHAIGKHFR,-0.405 ± 0.49
12,FMYWLGCYIRLLCDNLKQRG,-0.979 ± 0.49
13,FNAIYIKFTGRFSLTRDNRC,1.73 ± 0.21
14,FNDGTQKSTLACVRNKYRVY,0.633 ± 0.57
15,FNGVIFNGSSVNYYPFAHSF,5.035 ± 0.036
16,FNHYQ,0.419 ± 0.36
17,FNMDGYGRTGVRPFCRYVLN,0.333 ± 0.61
18,FNTGSSMLLLIRVMVGKFGG,-1.57 ± 1.1
19,FNVSYSISMMLKRGVCAHCW,6.038 ± 0.034
20,FNWVEWLFFSMAFKLLVESR,inactive
21,FPCRGLGGVLW,1.97 ± 0.14
22,FPGRFRGKSLEKRMVM,0.721 ± 0.46

# From the supplement of paper PMC12042874
